Assay results published in patent US20240352117A1.

Molecular target: natural TSLP
Assay: cell-based or functional assay

## Tezepelumab (antibody)
  IC50 of inhibiting STAT5 phosphorylation in SW756-STAT5-Luciferase reporter gene cells induced by natural TSLP: 1.45 ng/mL
